Assay results as given in patent US11028174 (LEPU BIOPHARMA, dated 2021).

Key:
[1] = biological target: recombinant human TGF-β (human) (UniProt P01137); experiment: cell-based or functional assay
[2] = biological target: PD-L1 on PD-L1 target cells (Homo sapiens (Human)) (UniProt Q9NZQ7); experiment: cell-based or functional assay
rat PD-L1 protein = rat PD-L1 protein (rat, UniProt D4AE25 19-239); experiment: ELISA, coated rat PD-L1
Protocol: (§1) ELISA testing was carried out to evaluate the binding of chimeric antibodies to human PD-L1, mouse PD-L1, rat PD-L1, and cynomolgus PD-L1, respectively.
(§2) Briefly, microtiter plates were coated with human, mouse, rat and cynomolgus PD-L1 proteins at 0.5 µg/ml in PBS, 100 µl/well at 4° C. overnight, then blocked with 150 µl/well of 1% BSA. Three-fold dilutions of chimeric antibodies starting from 10 µg/ml were added to each well and incubated for 1 hour at 37° C. The plates were washed with PBS/Tween and then incubate with mouse-anti-human IgG Fab antibody conjugated with Horse Radish Peroxidase (HRP) for 30 mins at 37° C. After washing, the plates were developed with TMB substrate and analyzed by spectrophotometer at OD 450 nm.

mouse PD-L1 protein = mouse PD-L1 protein (mouse, UniProt Q9EP73 19-239, limits assumed); experiment: ELISA, coated mouse PD-L1
Protocol: as §1, §2

Chain of rat PD-L1 protein (D4AE25 entry or part of it limits assumed): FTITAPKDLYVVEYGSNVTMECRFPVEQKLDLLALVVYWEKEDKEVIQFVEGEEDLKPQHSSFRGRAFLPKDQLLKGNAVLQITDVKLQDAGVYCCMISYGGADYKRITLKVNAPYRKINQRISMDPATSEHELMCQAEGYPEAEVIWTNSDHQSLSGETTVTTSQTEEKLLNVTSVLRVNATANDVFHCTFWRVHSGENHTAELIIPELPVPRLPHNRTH
Chain of mouse PD-L1 protein (Q9EP73 19-239 limits assumed): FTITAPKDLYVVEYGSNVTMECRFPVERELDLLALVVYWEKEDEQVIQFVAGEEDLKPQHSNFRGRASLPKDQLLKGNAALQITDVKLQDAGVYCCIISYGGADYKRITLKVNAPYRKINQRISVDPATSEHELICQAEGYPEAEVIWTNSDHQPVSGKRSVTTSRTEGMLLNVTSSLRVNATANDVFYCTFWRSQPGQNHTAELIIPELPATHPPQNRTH
Chain of PD-L1 on PD-L1 target cells (Homo sapiens (Human)) (Q9NZQ7 19-290 limits assumed): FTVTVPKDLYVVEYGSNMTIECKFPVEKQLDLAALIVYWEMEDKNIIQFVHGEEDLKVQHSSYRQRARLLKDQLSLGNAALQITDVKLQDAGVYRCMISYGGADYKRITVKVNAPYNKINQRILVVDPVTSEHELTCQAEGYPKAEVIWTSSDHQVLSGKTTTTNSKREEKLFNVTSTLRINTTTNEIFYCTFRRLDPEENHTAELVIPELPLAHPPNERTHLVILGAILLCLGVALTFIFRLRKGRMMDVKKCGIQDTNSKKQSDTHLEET
Chain of recombinant human TGF-β (human) (P01137 279-390 limits assumed): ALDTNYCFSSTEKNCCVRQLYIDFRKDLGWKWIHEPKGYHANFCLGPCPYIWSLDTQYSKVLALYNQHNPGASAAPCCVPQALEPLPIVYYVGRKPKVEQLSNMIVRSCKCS

Row | TGF-β SMAD luciferase reporter assay in transfected 293 cells [1] | NFAT-RE-mediated luminescence, PD1 effector cells co-cultured with PD-L1 target cells [2] | Molecule | binding result (rat PD-L1 protein) | binding result (mouse PD-L1 protein)
1 | 0.0669 nM | 0.85 nM | M7824 (bintrafusp alfa) |  | 
2 |  |  | 89C10H8 chimeric mAb (antibody, V domains shown, also called 89C10H8-chimera) VH: EVQLVESGGGLVQPGRSLTLSCVASGFTFSNYWMTWIRQAPGKGLEWVASITNTGSSTFYPDSVKGRFTISRDNTRSTLFLQINSLRSEDTATYYCTRDTTIAPFDYWGQGVMVTVSS VL: DIQMTQSPSFLSASVGDRVTITCKASQNLNEYLNWYQQKLGEAPKRLIYKTNTLQAGIPSRFSGSGSGIDYTLTISSLQPEDVATYFCSQYNSGNTFGAGTKLELK | no binding (tested: starting from 10 µg/ml) | no binding (tested: starting from 10 µg/ml)
3 |  |  | 67F3G7 chimeric mAb (antibody, V domains shown, also called 67F3G7-chimera) VH: QVKLLQSGAALVKPGASVKMSCKASGYIFTDFWVSWVKQSHEKSLEWIGEIYPNSGVSRYNEKFKGRATMTVDKSTSTAYLELSRLTSEDSAIYYCTKYFGYTYWFGYWGQGTLVTVSS VL: DTVLTQSPALAVSLGQRITISCRASKSVSTYMHWYQQRSGLQPKLLIYSASHLESGVPSRFSGSGSGTDFTLTIDPVEADDIANYYCQQSNELPVTFGSGTKLEIK | no binding (tested: starting from 10 µg/ml) | no binding (tested: starting from 10 µg/ml)
4 |  |  | 47C6A3 chimeric mAb (antibody, V domains shown, also called 47C6A3-chimera) VH: DVQLQESGPGLVKPSQSLSLTCTVTGYSITSDYAWNWIRQFPGNKLEWMGYIIYSGSTSYNPSLKSRISITRDTSKNQFFLQLNSVTTEDTATYYCARSTMIATNWFAYWGQGTLVTVSA VL: DIVMTQSHKFMSTSVVDRVSITCKASQDVSLAVAWYQQKPGQSPKLLIYWASTRHTGVPDRFTGSGSGTDFALTISSVQAEDLALYYCQQHYITPWTFGGGTKLEIK | no binding (tested: starting from 10 µg/ml) | no binding (tested: starting from 10 µg/ml)
